Where a chain is given by its changes, count along the chain named.
T1: Macaca fascicularis CEACAM6-Domain 1-His (expressed in E. coli) (Macaca fascicularis)
T1 construct: entry includes the His tag; also called TPP-2453; Recombinant single domain 1 of Macaca fascicularis CEACAM6
T1 chain: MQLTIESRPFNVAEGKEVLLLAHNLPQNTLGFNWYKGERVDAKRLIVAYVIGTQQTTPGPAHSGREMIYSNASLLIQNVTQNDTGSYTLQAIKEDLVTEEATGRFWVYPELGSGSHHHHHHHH

T2: Human CEACAM6-Domain 1-His (expressed in E. coli), wild-type (human)
T2 construct: entry includes the His tag; also called hDOM1
T2 chain: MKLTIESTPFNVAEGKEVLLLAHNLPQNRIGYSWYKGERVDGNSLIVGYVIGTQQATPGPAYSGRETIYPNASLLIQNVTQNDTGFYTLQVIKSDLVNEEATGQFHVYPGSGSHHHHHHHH

T3: human CEACAM1, extracellular (mature form), R&D Systems 2244-CM (human, UniProt P13688 35-428)
T3 construct: used biotinylated in some assays; also called TPP-1437; hC1
T3 sequence: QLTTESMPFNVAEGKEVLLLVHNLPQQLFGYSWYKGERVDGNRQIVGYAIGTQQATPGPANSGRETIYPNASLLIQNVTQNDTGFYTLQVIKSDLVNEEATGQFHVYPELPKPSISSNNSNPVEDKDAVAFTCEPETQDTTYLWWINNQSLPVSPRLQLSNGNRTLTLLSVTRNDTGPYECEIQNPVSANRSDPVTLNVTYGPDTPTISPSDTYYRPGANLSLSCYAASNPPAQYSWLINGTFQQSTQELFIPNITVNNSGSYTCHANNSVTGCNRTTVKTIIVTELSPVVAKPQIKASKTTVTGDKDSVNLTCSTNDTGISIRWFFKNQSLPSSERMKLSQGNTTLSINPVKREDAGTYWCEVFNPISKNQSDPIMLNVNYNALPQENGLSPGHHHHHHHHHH

T4: human CEACAM1, full-length, on transfected HeLa cells (human, UniProt P13688 35-526)
T4 construct: also called TPP-4185; HeLa human CEACAM1
T4 sequence: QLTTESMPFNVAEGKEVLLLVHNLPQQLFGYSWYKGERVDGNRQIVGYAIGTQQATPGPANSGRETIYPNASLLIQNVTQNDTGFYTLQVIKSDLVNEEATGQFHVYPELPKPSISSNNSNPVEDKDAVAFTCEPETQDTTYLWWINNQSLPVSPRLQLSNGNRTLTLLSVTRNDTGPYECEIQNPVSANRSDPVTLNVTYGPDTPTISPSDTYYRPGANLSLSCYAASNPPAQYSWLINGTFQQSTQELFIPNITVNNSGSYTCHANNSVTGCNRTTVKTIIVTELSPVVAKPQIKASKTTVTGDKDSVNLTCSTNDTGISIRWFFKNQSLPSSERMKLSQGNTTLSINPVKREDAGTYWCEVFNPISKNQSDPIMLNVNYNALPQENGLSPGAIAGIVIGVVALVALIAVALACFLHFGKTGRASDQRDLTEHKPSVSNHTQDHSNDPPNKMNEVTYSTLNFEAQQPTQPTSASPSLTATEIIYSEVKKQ

B1: TPP-3705 (antibody, human IgG2, kappa, V domains shown)
VH: EVQLVESGGGLVQPGGSLRLSCAASGFTFSLYQMHWVRQAPGKGLEWVSWISFSGGNTGYADSVKGRFTISRDNSKNTLYLQMNSLRAEDTAVYYCARATGYSSPWYLDPWGQGTLVTVSS
VL: DIQMTQSPSSLSASVGDRVTITCQASHEIDNYLNWYQQKPGKAPKLLIYDAYWLKTGVPSRFSGSGSGTDFTLTISSLQPEDIATYYCQGYDDLSVTFGGGTKVDIKR
notes: also called 090E-M007-A09-Mat1-hIgG2-hIgG2Kappa
B2: TPP-3707 (antibody, human IgG2, kappa, V domains shown)
VH: B1 VH
VL: B1 VL with L54S
notes: also called 090E-M007-A09-Mat2-hIgG2-hIgG2Kappa
B3: TPP-3821 (antibody, human IgG2, kappa, V domains shown)
VH: QVTLRESGPALVKPTQTLTLTCTFSGFSLSTYGIGVGWIRQPPGKALEWLAHIWWNDNKYYSTSLKTRLTISKDTSKNQVVLTMTNMDPVDTATYYCARISLPYFDYWGQGTLVTVSS
VL: DIQLTQSPSFLSASVGDRVTITCKASQNVGTAVAWYQQKPGKAPKLLIYSASNRYTGVPSRFSGSGSGTEFTLTISSLQPEDFATYYCQQYNNYPLTFGGGTKVEIKR
notes: humanized from TPP-3187, human IgG2; also called 3187HU2-hIgG2Kappa
B4: TPP-3820 (antibody, human IgG2, kappa, V domains shown)
VH: B3 VH with S30T, A46G
VL: B3 VL
notes: humanized from TPP-3187, human IgG2; also called 3187HU1-hIgG2Kappa
B5: TPP-3310 (antibody, human IgG2, kappa)
heavy: QVTLRESGPALVKPTQTLTLTCTFSGFSLSTYGIGVGWIRQPPGKALEWLAHIWWNDNKYYSTSLKTRLTISKDTSKNQVVLTMTNMDPVDTATYYCARISLPYFDYWGQGTTLTVSSASTKGPSVFPLAPCSRSTSESTAALGCLVKDYFPEPVTVSWNSGALTSGVHTFPAVLQSSGLYSLSSVVTVPSSNFGTQTYTCNVDHKPSNTKVDKTVERKCCVECPPCPAPPVAGPSVFLFPPKPKDTLMISRTPEVTCVVVDVSHEDPEVQFNWYVDGVEVHNAKTKPREEQFNSTFRVVSVLTVVHQDWLNGKEYKCKVSNKGLPAPIEKTISKTKGQPREPQVYTLPPSREEMTKNQVSLTCLVKGFYPSDIAVEWESNGQPENNYKTTPPMLDSDGSFFLYSKLTVDKSRWQQGNVFSCSVMHEALHNHYTQKSLSLSPG
light: DIQLTQSPSFLSASVGDRVTITCKASQNVGTAVAWYQQKPGKAPKLLIYSASNRYTGVPSRFSGSGSGTEFTLTISSLQPEDFATYYCQQYSSYPLTFGGGTKVEIKRTVAAPSVFIFPPSDEQLKSGTASVVCLLNNFYPREAKVQWKVDNALQSGNSQESVTEQDSKDSTYSLSSTLTLSKADYEKHKVYACEVTHQGLSSPVTKSFNRGEC
notes: humanized from TPP-2971, human IgG2; also called TPP-2971HU1-hIgG2Kappa
B6: TPP-2971 (antibody, mouse IgG1, V domains shown)
VH: QVTLKESGPGILQPSQTLSLTCSFSGFSLSTYGIGVGWIRQPSGKDLEWLAHIWWNDNKYYNTALKSRLTISKDTSNNQVFLKIASVDTADTATYYCARISLPYFDYWGQGTTLTVSS
VL: DIVMTQSQKFMSTSVGDRVSITCKASQNVGTAVAWYQQKPGQSPKLLIYSASNRYTGVPDRFTGSGSGTDFTLTISNMQSEDLADYFCQQYSSYPLTFGAGTKLELK
notes: murine hybridoma antibody, mouse IgG1; also called 792.15H12C9
B7: TPP-3323 (antibody, human IgG2, kappa, V domains shown)
VH: B6 VH with S30T, D46G
VL: DIVMTQSQKFMSTSVGDRVSITCKASQNVGTAVAWYQQKPGQSPKLLIYSASNRYTGVPDRFTGSGSGTDFTLTISNMQSEDLADYFCQQYNNYPLTFGAGTKLELKR
notes: human IgG2 chimera; also called TPP-3187X1-hIgG2; hIgG2 chimera of TPP-3187
B8: TPP-3187 (antibody, mouse IgG1, V domains shown)
VH: B6 VH with S30T, D46G
VL: B6 VL with S92N, S93N
notes: murine hybridoma antibody, mouse IgG1; also called 792.15C4F4
B9: TPP-3308 (antibody, human IgG2, kappa, V domains shown)
VH: B6 VH
VL: B7 VL with N92S, N93S
notes: human IgG2 chimera; also called TPP-2971X1-hIgG2Kappa; hIgG2 chimera of TPP-2971

Target: T1, Macaca fascicularis CEACAM6-Domain …
Test: SPR, antibody captured, antigen as analyte
Protocol: (§1) Surface plasmon resonance (SPR) experiments for quantitative binding analyses were performed either using a Biacore T100, Biacore T200 or a Biacore 4000 instrument (GE Healthcare Biacore, Inc.) equipped with Series S Sensor Chips CM5 (GE Healthcare Biacore, Inc.). Binding assays were carried out at 25° C. with assay buffer HBS-EP+(10 mM HEPES pH 7.4, 150 mM NaCl, 3 mM EDTA, 0.05% Surfactant P20). Antibodies were captured with an anti-hIgG capture antibody covalently immobilized to the chip surface via amine coupling chemistry. Reagents for amine coupling (1-ethyl-3-(3-dimethylaminopropyl) carbodiimide hydrochloride (EDC), N-hydroxysuccinimide (NHS), ethanolamine-HCl pH 8.5) were used from the Amine Coupling Kit (GE Healthcare, product code BR-1000-50). Anti-hIgG, anti-mIgG capture antibodies and immobilization buffer (10 mM sodium acetate pH 5.0) were used from the Human Antibody Capture Kit (GE Healthcare, BR-1008-39) and the Mouse Antibody Capture Kit (GE Healthcare, BR-1008-38), respectively. The sensor chip surface was activated with a freshly prepared solution of 0.2 M EDC and 0.05 M NHS passed over the chip surface for 420 s at a flow rate of 10 μl/min, followed by an injection of anti-hIgG or anti-mIgG capture antibody (dissolved to 25 μg/ml in immobilization buffer) for 180 s at a flow rate of […]. Excess of activated groups were blocked with a 1 molar solution of ethanolamine injected at a flow rate of 10 μl/min for 420 s.
(§2) CEACAM antigens were used as analyte to determine KD values. Antibodies were captured for 20 s at a flow rate of 10 μl/min prior to each analyte injection.

Binder	Kd [nM]
B1	2.7
B2	2.4
B3	4.7
B4	5.2
B5	3.4
B6	5.3
B7	6.9
B8	6.9
B9	5.4

Target: T2, Human CEACAM6-Domain 1-His (expressed …)
Test: SPR, antibody captured, antigen as analyte
Protocol: as §1, §2

Binder	Kd [nM]
B1	6.7
B2	6.4
B3	4.5
B4	5.1
B5	3.7
B6	11
B7	9
B8	12
B9	9.5

The binders below were run against T3, human CEACAM1, extracellular (mature …) (assay: SPR, antibody captured, antigen as analyte).
Protocol: as §1, §2
Obtained sensorgrams were double-referenced, i.e. in-line reference cell correction followed by buffer sample subtraction.

Binder	binding result
B3	no binding (tested: 200 nM)
B4	no binding (tested: 200 nM)
B5	no binding (tested: 200 nM)
B6	no binding (tested: 200 nM)

These binders were tested against T4, human CEACAM1, full-length, on … (assay: FACS, transfected HeLa cells).
Protocol: For FACS experiments HeLa wild type cells were cultured in RPMI-1640, 10% FCS, while CEACAM-receptor transfected HeLa cells received in addition 0.5% Gentamycin (stock 10 mg/ml, Fa. PAA) and 200 μg/ml Hygromycin B (stock 50 mg/ml, Invitrogen). Cells were washed 3 times with PBS w/o Ca²⁺/Mg²⁺ and were detached from the culture plate non-enzymatically with EDTA dissociation buffer (Gibco). Cells were washed in cold FACS buffer (PBS w/o Ca²⁺/Mg²⁺ and heat-inactivated 3% FCS) and were counted using a countess machine (Invitrogen). 10⁵ cells per well were plated and incubated with the respective primary antibody (5 μg/ml) for 1 h at 4° C. on a plate shaker. […] After 2 times washing the cells were resuspended in 100 μl FACS buffer and were analysed on a FACS Canto II machine (Beckton Dickinson) or a FACS Array (Beckton Dickinson).
For EC₅₀ analysis, the primary antibodies were used at increasing concentrations in a range from 0.1 nM to 100 nM. Half maximal binding values (EC₅₀) were determined by plotting the median fluorescence intensity signal against the concentration (logarithmic scale). Curve fitting of data was performed using the Graph Pad prism analysis software.

Binder	FACS median fluorescence [medianfluorescence]	binding result
B2	10 to 100	–
B3	–	no binding (tested: 5 µg/ml)
B4	–	no binding (tested: 5 µg/ml)
B5	–	no binding (tested: 5 µg/ml)
B6	–	no binding (tested: 5 µg/ml)
B7	–	no binding (tested: 5 µg/ml)
B8	–	no binding (tested: 5 µg/ml)
B9	–	no binding (tested: 5 µg/ml)

Reference: US20200181261A1 (Bayer, published 2020)
